The chains are these.
B1: I-143 (peptide)
peptide: Ac-[αAllylPro]N[tBuAla][B5]D[Phe(3-COOH)][Nle]AFK[PyrS2″][2F3MeF″][BztA″][GlnR]LS-NH2
modifications: bridge 10-14; not fully specified (bridges); printed as Ac-PL3-Asn-Npg-B5-Asp-3COOHF-nLeu-Ala-Phe-Lys*3-PyrS2-2F3MeF-BztA-GlnR*3-Leu-Ser-NH2; reading uncertain; also: Lys10 and GlnR14 marked *3
B2: I-131 (peptide)
peptide: Ac-[αAllylPro]D[tBuAla][B5]D[Phe(3-COOH)][GlnR]AFL[PyrS2″][2F3MeF″][BztA″][GlnR](29N2spiroundecane)A-NH2
modifications: reading uncertain; also: staple links not given here, printed as Ac-PL3-Asp-Npg-B5-Asp-3COOHF-GlnR-Ala-Phe-Leu-PyrS2-2F3MeF-BztA-[29N2spiroundecane]GlnR-Ala-NH2
B3: I-142 (peptide)
peptide: Ac-[αAllylPro]N[tBuAla][B5]D[Phe(3-COOH)]AAFK[PyrS2(5)][2F3MeF″][BztA″][GlnR]LS-NH2
modifications: bridge 10-14; not fully specified (bridges); printed as Ac-PL3-Asn-Npg-B5-Asp-3COOHF-Ala-Ala-Phe-Lys*3-PyrS2-2F3MeF-BztA-GlnR*3-Leu-Ser-NH2; reading uncertain; also: Lys10 and GlnR14 marked *3
B4: I-134 (peptide)
peptide: Ac-[αAllylPro]D[tBuAla][B5]D[Phe(3-COOH)][GlnR]AFL[PyrS2][2F3MeF][Bta][GlnR](29N2spiroundecane)A-NH2
modifications: staple 1-4, 4-11 (inferred); not fully specified; printed as Ac-PL3-Asp-Npg-B5-Asp-3COOHF-GlnR-Ala-Phe-Leu-PyrS2-2F3MeF-BztA-[29N2spiroundecane]GlnR-Ala-NH2; reading uncertain; also: staple C=C reduced to CH2-CH2
B5: I-149 (peptide)
peptide: Ac-[αAllylPro]N[Cha][B5″]DQ[Lys(iPr)]AF[GlnR][PyrS2″]F[Bta]K-NH2
modifications: bridge 10-14; reading uncertain; also: PL3-B5 and PyrS2 links not placed, printed as Ac-PL3-Asn-Cha-B5-Asp-Gln-iPrLys-Ala-Phe-GlnR*3-PyrS2-Phe-BztA-Lys*3-NH2
B6: I-83 (peptide)
peptide: Ac-[PL3]D[tBuAla][B5][hSer][Phe(3-COOH)]AAFK[PyrS2″][3Thi][BztA][GlnR]A-NH2
modifications: staple 1-4 (inferred); bridge 10-14; not fully specified (residue 10, bridges); printed as Ac-PL3-Asp-Npg-B5-Hse-3COOHF-Ala-Ala-Phe-Lys*3-PyrS2-3Thi-BztA-GlnR*3-Ala-NH2; reading uncertain
B7: I-87 (peptide)
peptide: Ac-[PL3]D[tBuAla][B5][hSer][Phe(3-COOH)]SAFK[PyrS2(5)][3Thi][BztA][GlnR]A-NH2
modifications: staple 1-4 (inferred); bridge 10-14; not fully specified (residue 10, bridges); printed as Ac-PL3-Asp-Npg-B5-Hse-3COOHF-Ser-Ala-Phe-Lys*3-PyrS2-3Thi-BztA-GlnR*3-Ala-NH2; reading uncertain; also: Lys10 and GlnR14 marked *3
B8: I-41 (peptide)
peptide: Ac-[αAllylPro]D[tBuAla][B5(5)]D[Phe(3-COOH)]AAF[AsnR][PyrS2(5)][3Thi][Bta][Orn]-NH2
modifications: bridge 10-14; reading uncertain; also: PL3/B5/PyrS2 staple links not placed, printed as Ac-PL3-Asp-Npg-B5-Asp-3COOHF-Ala-Ala-Phe-AsnR*3-PyrS2-3Thi-BztA-Orn*3-NH2

*1 amine or outer side, *2 acyl side, *3 side chain or, on linkers, in order; H or OH if unused. Bridges are numbered along the chain shown (N, C = ends). Primed or numbered codes have the meaning given here. [ ]: non-standard residue; d: D form. PyrS2″ = (S)-3-amino-1-((pent-4-en-1-yloxy)carbonyl)pyrrolidine-3-carboxylic acid (olefin stapling residue), C=CCCCOC(=O)N1CC[C@@](N[*:1])(C(=O)[*:2])C1; PyrS2 = (S)-3-amino-1-((pent-4-en-1-yloxy)carbonyl)pyrrolidine-3-carboxylic acid, olefin staple residue, C=CCCCOC(=O)N1CC[C@@](N[*:1])(C(=O)[*:2])C1; PyrS2(5) = (S)-3-amino-1-((pent-4-en-1-yloxy)carbonyl)pyrrolidine-3-carboxylic acid, C=CCCCOC(=O)N1CC[C@@](N[*:1])(C(=O)[*:2])C1; B5″ = 2-amino-2-(pent-4-en-1-yl)hept-6-enoic acid (bis-olefin stapling residue), C=CCCCC(CCCC=C)(N[*:1])C(=O)[*:2]; B5(5) = 2-amino-2-(pent-4-en-1-yl)hept-6-enoic acid (two olefin arms), C=CCCCC(CCCC=C)(N[*:1])C(=O)[*:2]; 2F3MeF″ = aromatic residue, Cc1cccc(C[C@H](N[*:1])C(=O)[*:2])c1F; Phe(3-COOH) = N[C@@H](Cc1cccc(C(=O)O)c1)C(=O)O; 2F3MeF = Cc1cccc(C[C@H](N[*:1])C(=O)[*:2])c1F; Bta = N[C@@H](Cc1csc2ccccc12)C(=O)O; Lys(iPr) = CC(C)NCCCC[C@H](N)C(=O)O; αAllylPro = C=CC[C@@]1(C(=O)O)CCCN1; BztA = aromatic amino acid residue; tBuAla = CC(C)(C)C[C@H](N)C(=O)O; 3Thi = N[C@@H](Cc1ccsc1)C(=O)O; Cha = N[C@@H](CC1CCCCC1)C(=O)O; hSer = N[C@@H](CCO)C(=O)O; BztA″ = aromatic residue; Nle = CCCC[C@H](N)C(=O)O; Orn = NCCC[C@H](N)C(=O)O; AsnR = not defined here; GlnR = not defined here; PL3 = not defined here; B5 = not defined here

beta-catenin (human), sequence (B6V8E6 146-665 limits assumed): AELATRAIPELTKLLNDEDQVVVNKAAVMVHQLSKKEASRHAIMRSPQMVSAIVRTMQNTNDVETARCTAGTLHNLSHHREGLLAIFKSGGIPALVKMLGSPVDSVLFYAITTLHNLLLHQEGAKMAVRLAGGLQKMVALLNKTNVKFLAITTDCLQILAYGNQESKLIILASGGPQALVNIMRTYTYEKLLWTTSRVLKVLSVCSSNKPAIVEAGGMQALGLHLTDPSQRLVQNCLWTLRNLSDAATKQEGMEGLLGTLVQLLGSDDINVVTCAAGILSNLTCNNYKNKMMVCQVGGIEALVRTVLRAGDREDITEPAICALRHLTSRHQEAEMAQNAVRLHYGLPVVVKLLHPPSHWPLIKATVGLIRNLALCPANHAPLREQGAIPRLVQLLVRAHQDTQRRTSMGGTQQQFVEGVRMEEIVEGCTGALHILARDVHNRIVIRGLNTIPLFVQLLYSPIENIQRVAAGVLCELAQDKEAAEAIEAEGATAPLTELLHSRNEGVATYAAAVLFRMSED

The subject of the first test is COLO320DM cells. The test is described as follows: COLO320DM proliferation assay. In kind it is cell-based, human. The conditions noted are these: read-out: COLO320DM Proliferation Abs IC50. The method, then: Various technologies can be utilized to assess technologies of the present disclosure. For example, in some embodiments, solubility, LogD, interactions with targets, etc. of various agents such as stapled peptides were assessed using technologies described in WO 2022/261257 (e.g., those in its Examples). In some embodiments, solubility, shake flask LogD, and binding to beta-catenin were assessed. In some embodiments, an assay for assessing interactions, e.g., with beta-catenin, was fluorescence polarization as described in WO 2022/261257. In some embodiments, an assay was Nano-BRET target engagement assay that assessed beta-catenin/TCF4 engagement as described in WO 2022/261257. In some embodiments, an assay was a reporter assay as reported in Example 4 of WO 2022/261257. In some embodiments, an assay was a COLO320DM proliferation assay as reported in Example 4 of WO 2022/261257.
Among other things, provided technologies can inhibit proliferation of various cells including various cancer cells. In some embodiments, provided technologies modulate WNT specific transcription. In some embodiments, provided technologies induce cell cycle arrest. In some embodiments, provided technologies induce G1 cell cycle arrest. In some embodiments, provided technologies increased proportion of cells in G1 phase of cell cycle. As confirmed in FIG. 3, provided technologies can inhibit proliferation of COLO320DM, which is a colorectal cell line comprising various mutations such as APC, TP53, etc., modulate WNT specific transcription such as of AXIN2 and CXCL12, and induce G1 cell cycle arrest. In some embodiments, it was confirmed that provided technologies can reduce proportion of cells in S phase of cell cycle.
As for `CC(=O)N1CCC[C@]12CC=CCCCC1(CCCC=CCCCOC(=O)N3CC[C@@]4(C3)NC(=O)[C@H](CCCCNC(=O)CC[C@@H](C(=O)N[C@@H](C)C(N)=O)NC(=O)[C@H](Cc3csc5ccccc35)NC(=O)[C@H](Cc3ccsc3)NC4=O)NC(=O)[C@H](Cc3ccccc3)NC(=O)[C@H](C)NC(=O)C(C)(C)NC(=O)[C@H](Cc3cccc(C(=O)O)c3)NC(=O)[C@H](CC(=O)O)NC1=O)NC(=O)[C@H](CCCN1CCOCC1)NC(=O)[C@H](CC(=O)O)NC2=O` (relative stereo) [I-313, Ac-PL3-Asp-MorphNva-B5-Asp-3COOHF-Aib-Ala-Phe-Lys*3-PyrS2-3Thi-BztA-GlnR*3-Ala-NH2], the IC50 is greater than 20 µM.
On the same count and under the same terms, the value for `CC(=O)N1CCC[C@]12CC=CCCCC1(CCCC=CCCCOC(=O)N3CC[C@@]4(C3)NC(=O)[C@H](CCCCNC(=O)CC[C@@H](C(=O)N[C@@H](C)C(N)=O)NC(=O)[C@H](Cc3csc5ccccc35)NC(=O)[C@H](Cc3ccsc3)NC4=O)NC(=O)[C@H](Cc3ccccc3)NC(=O)[C@H](C)NC(=O)C(C)(C)NC(=O)[C@H](Cc3cccc(C(=O)O)c3)NC(=O)[C@H](CC(=O)O)NC1=O)NC(=O)[C@H](C)NC(=O)[C@H](CC(=O)O)NC2=O` (relative stereo) [I-304, Ac-PL3-Asp-Ala-B5-Asp-3COOHF-Aib-Ala-Phe-Lys*3-PyrS2-3Thi-BztA-GlnR*3-Ala-NH2] was no more than 10 µM; that for `CC(=O)N1CCC[C@]12CC=CCCCC1(CCCC=CCCCOC(=O)N3CC[C@@]4(C3)NC(=O)[C@H](CCCCNC(=O)CC[C@@H](C(=O)N[C@@H](C)C(N)=O)NC(=O)[C@H](Cc3csc5ccccc35)NC(=O)[C@H](Cc3cccnc3)NC4=O)NC(=O)[C@H](Cc3ccccc3)NC(=O)[C@H](C)NC(=O)C(C)(C)NC(=O)[C@H](Cc3cccc(C(=O)O)c3)NC(=O)[C@H](CC(=O)O)NC1=O)NC(=O)[C@H](CC(C)(C)C)NC(=O)[C@H](CC(=O)O)NC2=O` (relative stereo) [I-300, Ac-PL3-Asp-Npg-B5-Asp-3COOHF-Aib-Ala-Phe-Lys*3-PyrS2-3PyrA-BztA-GlnR*3-Ala-NH2] was greater than 20 µM.
Still for that read-out and setting: the value for `CC(=O)N1CCC[C@@]1(C)C(=O)N[C@@H](CC(=O)O)C(=O)N[C@H](C(=O)N[C@]1(C)CCCCCCCCOC(=O)N2CC[C@@]3(C2)NC(=O)[C@H](CCCCNC(=O)CC[C@@H](C(=O)N[C@@H](C)C(N)=O)NC(=O)[C@H](Cc2csc4ccccc24)NC(=O)[C@H](Cc2ccsc2)NC3=O)NC(=O)[C@H](Cc2ccccc2)NC(=O)[C@H](C)NC(=O)C(C)(C)NC(=O)[C@H](Cc2cccc(C(=O)O)c2)NC(=O)[C@H](CC(=O)O)NC1=O)C(C)C` (relative stereo) [I-237, Ac-MePro-Asp-Val-R5-Asp-3COOHF-Aib-Ala-Phe-Lys*3-PyrS2-3Thi-BztA-GlnR*3-Ala-NH2] was greater than 20 µM; that for `CC(=O)N1CCC[C@]12CC=CCCCC1(CCCC=CCCCOC(=O)N3CC[C@@]4(C3)NC(=O)[C@H](CCCCNC(=O)CC[C@@H](C(=O)N[C@@H](C)C(N)=O)NC(=O)[C@H](Cc3csc5ccccc35)NC(=O)[C@H](Cc3ccsc3)NC4=O)NC(=O)[C@H](Cc3ccccc3)NC(=O)[C@H](C)NC(=O)C(C)(C)NC(=O)[C@H](Cc3cccc(C(=O)O)c3)NC(=O)[C@H](CC(=O)O)NC1=O)NC(=O)[C@H](C1CCCCC1)NC(=O)[C@H](CC(=O)O)NC2=O` (single isomer, unassigned) [I-253, Ac-PL3-Asp-Chg-B5-Asp-3COOHF-Aib-Ala-Phe-Lys*3-PyrS2-3Thi-BztA-GlnR*3-Ala-NH2] was no more than 10 µM.
Still for that read-out and setting: to `CC(=O)N1CCC[C@]12CC=CCCCC1(CCCC=CCCCOC(=O)N3CC[C@@]4(C3)NC(=O)[C@H](CCCCNC(=O)CC[C@@H](C(=O)N[C@@H](C)C(N)=O)NC(=O)[C@H](Cc3csc5ccccc35)NC(=O)[C@H](Cc3ccccn3)NC4=O)NC(=O)[C@H](Cc3ccccc3)NC(=O)[C@H](C)NC(=O)C(C)(C)NC(=O)[C@H](Cc3cccc(C(=O)O)c3)NC(=O)[C@H](CC(=O)O)NC1=O)NC(=O)[C@H](CC(C)(C)C)NC(=O)[C@H](CC(=O)O)NC2=O` (relative stereo) [I-299, Ac-PL3-Asp-Npg-B5-Asp-3COOHF-Aib-Ala-Phe-Lys*3-PyrS2-2PyrA-BztA-GlnR*3-Ala-NH2] belongs 10 to 20 µM.

A further test has as its target beta-catenin (human). Briefly: cell-based or functional assay.
Details: not given
Turning to B1, the NanoBRET Abs IC50 is greater than 10 µM.
Still for that read-out and setting: the value for B2 was greater than 10 µM.
Molecule B3 returned a NanoBRET Abs IC50 (bin >3.0 uM) of less than 10 µM.
For B4, the NanoBRET Abs IC50 is greater than 10 µM.
On the same count and under the same terms, to B5 belongs greater than 10 µM.

A further test has as its target beta-catenin (human). The test is described as follows: fluorescence polarization; bin >200 nM.
Details: not given
For orientation: In fluorescence polarisation assays a small probe gives low polarisation when free and higher when bound to something large.
Molecule B6 yielded an IC50 of less than 750 nM.
Still for that read-out and setting: to B1 belongs less than 750 nM.
On the same count and under the same terms, the value for B2 was less than 750 nM; that for B7 was less than 750 nM; that for B3 was less than 750 nM.
Same read-out and setting: to B4 belongs less than 750 nM; to B8, less than 750 nM.
Molecule B5 registered an IC50 of less than 750 nM.
